Laboratory results: US20260124314A1, “ANTl-5T4 ANTIGEN BINDING DOMAINS, ANTIBODY-DRUG CONJUGATES AND METHODS OF USE THEREOF” (Salubris Biotherapeutics, Inc., priority 2023, published 2026)
Positions count from the first letter of the chain named.

Legend:
[1] = target: T1, recombinant human 5T4 protein (human, UniProt Q13641 32-355); assay: SPR (Biacore 8K), antibody captured on Protein A chip, 5T4 as analyte 0.625-10 nM, 1:1 model
T1 construct: The ELISA protein was bought (Sino biologics and Biorbyt); also called recombinant 5T4 protein; trophoblast glycoprotein (TPBG)
T1 sequence: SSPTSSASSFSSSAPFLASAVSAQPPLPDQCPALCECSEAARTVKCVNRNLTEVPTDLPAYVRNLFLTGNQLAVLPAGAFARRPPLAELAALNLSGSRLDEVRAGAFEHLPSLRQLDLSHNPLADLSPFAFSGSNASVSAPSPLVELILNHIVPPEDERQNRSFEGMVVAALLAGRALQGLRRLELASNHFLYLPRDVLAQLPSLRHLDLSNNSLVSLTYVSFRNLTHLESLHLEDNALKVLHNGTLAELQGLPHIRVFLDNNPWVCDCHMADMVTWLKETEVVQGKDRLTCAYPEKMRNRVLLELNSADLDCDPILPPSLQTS
Procedure: (§1) The binding affinity of anti-5T4 bispecific antibody-drug conjugate monospecific and bispecific antibodies to 5T4 was measured by Biacore kinetic experiments using a Protein A sensor chip on Biacore 8K (Cytiva) with HBS-EP+ as running buffer. […] After each binding cycle, the sensor chip was regenerated with glycine solution, pH 1.5. Signals from reference surface and an ensemble of buffer blank injections were subtracted from binding signals to correct for nonspecific binding and injection artifacts. The corrected experimental signals were globally fitted to a 1:1 binding model to extract kinetic constants, including association rate constant (ka), dissociation rate constant (kd), and equilibrium dissociation constant (KD), using the Biacore 8K Evaluation Software.

[2] = target: T1, recombinant human 5T4 protein; assay: SPR (Biacore 8K): antibody captured on a protein A chip, 5T4 protein injected at 0.625-10 nM, 1:1 binding model
Procedure: as §1

FcγRI (Abcam) = FcγRI (Abcam) (UniProt P12314); assay: SPR (Biacore 8K), antibody captured on Protein A chip, Fc receptor as analyte, 1:1 model
FcγRIIIa (158V) = FcγRIIIa (158V) (UniProt P08637); assay: as above
[3] = target: T1, recombinant human 5T4 protein; assay: SPR (Biacore 8K, optimized assay): antibody captured on a protein A chip, recombinant 5T4 injected at 0.02-5 µg/mL, one-to-one binding model
Procedure: (§2) SPR kinetic experiments were performed on Biacore 8K systems (GE healthcare) with HBS-EP+ as running buffer. […] Capture level for each antibody was maintained between 50-100 RU. The final analyte binding level at the highest concentration was maintained below 50 RU. […] After each binding cycle, the sensor chip was regenerated with glycine solution (pH 1.5). The resulting sensorgrams were fitted with a one-to-one binding model to extract kinetic constants using Biacore 8K Evaluation Software.

[4] = target: T1, recombinant human 5T4 protein; assay: SPR (Biacore 8K): antibody captured on a protein A chip, 5T4 protein injected at 0.625-10 nM, 1:1 binding model; FIG. 4C on D00005 prints the same value as 7.42e-11
Procedure: as §1

5T4 = target: T2, 5T4 (Homo sapiens, UniProt Q13641); assay: Non-overlapping epitope binding assay (SPR); details: mouse antibody captured, 5T4 injected, then humanized antibody
T2 sequence (Q13641 32-420): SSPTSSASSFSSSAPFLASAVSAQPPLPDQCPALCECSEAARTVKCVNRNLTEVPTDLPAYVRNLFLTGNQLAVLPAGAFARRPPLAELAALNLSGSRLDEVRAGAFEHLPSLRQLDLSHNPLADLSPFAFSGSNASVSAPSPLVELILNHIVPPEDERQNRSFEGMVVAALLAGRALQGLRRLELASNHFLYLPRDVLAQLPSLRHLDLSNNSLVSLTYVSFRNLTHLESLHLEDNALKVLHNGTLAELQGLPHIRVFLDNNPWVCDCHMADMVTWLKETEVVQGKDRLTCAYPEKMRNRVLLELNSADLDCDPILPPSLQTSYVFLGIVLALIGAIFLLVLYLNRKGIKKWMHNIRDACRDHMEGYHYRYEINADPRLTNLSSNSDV
Procedure: To examine epitope binding of anti-5T4 bispecific antibody-drug conjugate parental monospecific antibodies, surface plasmon resonance (SPR) binding experiments were performed using Biacore™ 8K systems (Cytiva™). HBS-EP+ buffer (10 mM HEPES, 150 mM NaCl, 3 mM EDTA and 0.05% v/v Surfactant P20) was used as running buffer. Anti-mouse IgG antibodies from the mouse antibody capture kit (Cytiva) were coupled in active flow cells on a CM5 sensor chip using an amine coupling kit (Cytiva), whereas the reference cell was left blank. As the first step, mouse monospecific antibody Ab1 or Ab2 was injected over both cells on all experimental channels. Second, test article 5T4 or buffer was injected over both cells on the corresponding channel. Third, humanized monospecific antibody Ab1 or Ab2, or buffer, was injected over both cells on all experimental channels. After each binding cycle, the sensor chip was regenerated with 10 mM Glycine-HCl pH1.7. SPR signals (RU) were recorded in real-time and plotted against time to generate binding sensorgrams. Sensorgrams from multiple channels were overlaid using Biacore 8K Evaluation Software.
To confirm the non-overlapping epitope binding of the select monospecific antibody Nos. 1 and 2, a surface plasmon resonance (SPR) technology-based binding assay was performed. […]

[5] = target: T1, recombinant human 5T4 protein; assay: optimized SPR (Biacore 8K), antibody captured on Protein A chip, recombinant 5T4 as analyte 0.02 to 5 µg/mL, 1:1 model
Procedure: as §2

Chain of FcγRI (Abcam) (P12314 16-288 limits assumed): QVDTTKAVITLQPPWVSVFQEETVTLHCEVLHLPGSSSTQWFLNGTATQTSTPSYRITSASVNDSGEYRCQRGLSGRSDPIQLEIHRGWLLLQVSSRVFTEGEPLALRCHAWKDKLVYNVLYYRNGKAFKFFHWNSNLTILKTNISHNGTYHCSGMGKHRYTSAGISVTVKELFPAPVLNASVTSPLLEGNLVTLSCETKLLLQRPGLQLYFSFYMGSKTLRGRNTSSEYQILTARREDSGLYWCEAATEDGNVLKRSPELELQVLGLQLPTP
Chain of FcγRIIIa (158V) (P08637 17-208 F176V): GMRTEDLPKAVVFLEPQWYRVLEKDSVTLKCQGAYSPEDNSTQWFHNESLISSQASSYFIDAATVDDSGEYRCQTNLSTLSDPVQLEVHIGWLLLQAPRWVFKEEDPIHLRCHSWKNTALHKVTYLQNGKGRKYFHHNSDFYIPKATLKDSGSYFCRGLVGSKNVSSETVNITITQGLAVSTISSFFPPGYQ

B1: humanized antibody No. 1 ((h)Ab1) (antibody, V domains shown)
VH: QVQLVQSGAEVKKPGASVKVSCKASGYSFTDYYMHWVRQAPGQGLEWMGRVSPNNGATNTNQKFKDRVTMTRDTSISTAYMELRSLRSEDTAVYYCARSTMITSYYFDYWGQGTLVTVSS
VL: DIVMTQSPSFLSVSVGDRVTITCKASQSVSTDVAWYQQKPGQAPKLLIYFASDRYTGVPDRFSGSGSGTDFTFTISSLQAEDVAVYYCQQDYSSPPTFGGGTKLEIK
notes: The FcγR assay calls it 'without Fc mutations'; also called humanized Ab1; humanized monospecific antibody Ab1
[1]
  Kd: 0.198 nM
[2]
  koff: 0.000248 s⁻¹
  kon: 1.25e+06 M⁻¹ s⁻¹
FcγRI (Abcam)
  Kd: 3.73 nM
FcγRIIIa (158V)
  Kd: 50.5 nM

B2: Bs3-HL biparatopic anti-5T4 antibody (Bs3 orientation, scFv in the VH-VL orientation) (bispecific antibody, human IgG1, kappa)
heavy: QVQLVQSGAEVKKPGASVKVSCKASGYSFTDYYMHWVRQAPGQGLEWMGRVSPNNGATNTNQKFKDRVTMTRDTSISTAYMELRSLRSEDTAVYYCARSTMITSYYFDYWGQGTLVTVSSASTKGPSVFPLAPSSKSTSGGTAALGCLVKDYFPEPVTVSWNSGALTSGVHTFPAVLQSSGLYSLSSVVTVPSSSLGTQTYICNVNHKPSNTKVDKRVEPKSCDKTHTCPPCPAPEFLGGPCVFLFPPKPKDTLMISRTPEVTCVVVDVSHEDPEVKFNWYVDGVEVHNAKTKPREEQYNSTYRVVSVLTVLHQDWLNGKEYKCKVSNKALPAPIEKTISKAKGQPREPQVYTLPPSREEMTKNQVSLTCLVKGFYPSDIAVEWESNGQPENNYKTTPPVLDSDGSFFLYSKLTVDKSRWQQGNVFSCSVMHEALHAHYTQKSLSLSPGKGGGGSGGGGSGGGGSEVQLLESGGGLVQPGGSLRLSCAASGFDFSRYWMTWVRQAPGKCLEWVSEINPDSRTINYTPSLKDRFTISRDNAKNTLYLQMNSLRAEDTAVYYCARPDHDYNPYYFNYWGQGTTVTVSSGGGGSGGGGSGGGGSGGGGSDIVLTQSPASLAVSLGQRATISCRPSQSVSTSSNSYIHWYQQKPGQPPKLLIKYASNLESGVPARFSGSGSGTDFTLTISPVEAEDTATYYCQQSWEIPLTFGCGTKLEIK
light: DIVMTQSPSFLSVSVGDRVTITCKASQSVSTDVAWYQQKPGQAPKLLIYFASDRYTGVPDRFSGSGSGTDFTFTISSLQAEDVAVYYCQQDYSSPPTFGGGTKLEIKRTVAAPSVFIFPPSDEQLKSGTASVVCLLNNFYPREAKVQWKVDNALQSGNSQESVTEQDSKDSTYSLSSTLTLSKADYEKHKVYACEVTHQGLSSPVTKSFNRGEC
notes: The heavy chain is Ab1 heavy chain (IgG1), linker, then Ab2 scFv (VH-linker-VL); Bs3-HL is described as the form without FCA, so its real Fc may have L, S and N at those positions; also called bispecific antibody in the Bs3-HL orientation; Bispecific 5T4-BS3 antibody
[3]
  Kd: 0.00363 nM
[1]
  Kd: 0.742 nM
[4]
  Kd: 0.0742 nM

B3: mouse antibody No. 1 ((m)Ab1) (antibody, V domains shown)
VH: EVQLQQSGPDLVKPGASVKISCKASGYSFTDYYMHWVKQSHGKSLEWIGRVSPNNGATNTNQKFKDKAILTVDKSSSTAYMDLRSLTSEDSAVYYCARSTMITSYYFDYWGQGTTLTVSS
VL: SIVMTQTPKFLLVSAGDRITITCKASQSVSTDVAWYQQKPGQSPKLLIYFASDRYTGVPDRFTGSGNGTDFTFTITTVQAEDLAIYFCQQDYSSPPTFGGGTKLEIK
notes: Mouse IgG, captured by anti-mouse IgG antibodies; also called mouse Ab1; mouse monospecific antibody Ab1
5T4
  epitope binding on 5T4: non-overlapping epitopes
[3]
  koff: 0.000421 s⁻¹
  kon: 259000 M⁻¹ s⁻¹
[5]
  Kd: 1.43 nM

B4: mouse antibody No. 2 ((m)Ab2) (antibody, V domains shown)
VH: EVKLLESGGGLVQPGGSLKLSCAASGFDFSRYWMTWVRQAPGKGLEWIGEINPDSRTINYTPSLKDKFIISRDNAKNTLYLHMSKVRSEDTALYYCARPDHDYNPYYFNYWGQGTTLTVSS
VL: DIVLTQSPASLAVSLGQRATISCRPSQSVSTSSNSYIHWYQQKPGQPPKLLIKYASNLESGVPARFSGSGSGTDFTLNIHPVEEEDTATYYCQQSWEIPLTFGAGTKLELK
notes: Mouse IgG; also called mouse Ab2; mouse monospecific antibody Ab2
5T4
  epitope binding on 5T4: non-overlapping epitopes
[3]
  koff: 0.000273 s⁻¹
  kon: 203000 M⁻¹ s⁻¹
[5]
  Kd: 1.34 nM

B5: Bs3-HL biparatopic anti-5T4 antibody conjugated to MMAE (Example 4) (bispecific antibody, human IgG1, kappa)
heavy: B2 heavy
light: B2 light
modifications: monomethyl auristatin E (MMAE) conjugated; attachment residues, chain and drug-to-antibody ratio not stated for this experiment
notes: Antibody-drug conjugate of Bs3-HL; also called bispecific antibody in the Bs3-HL orientation conjugated to MMAE; bispecific antibody with conjugated MMAE
[3]
  Kd: 0.0159 nM
  koff: 5.99e-06 s⁻¹
  kon: 376000 M⁻¹ s⁻¹

B6: humanized antibody No. 2 ((h)Ab2) (antibody, V domains shown)
VH: EVQLLESGGGLVQPGGSLRLSCAASGFDFSRYWMTWVRQAPGKGLEWVSEINPDSRTINYTPSLKDRFTISRDNAKNTLYLQMNSLRAEDTAVYYCARPDHDYNPYYFNYWGQGTTVTVSS
VL: B4 VL with N78T, H80S, E84A, A104G, L110I
notes: also called humanized Ab2; humanized monospecific antibody Ab2
[1]
  Kd: 0.32 nM
[2]
  koff: 0.000283 s⁻¹
  kon: 884000 M⁻¹ s⁻¹
